Kd data for four sequences are collected here from article PMC10858260.

Series [1] concerns ApsR-P (phosphorylated with acetyl-phosphate) (Lacticaseibacillus paracasei BL23). Put plainly: BLI. As to conditions: BLI (BLITz, streptavidin sensors, DNA immobilized): 50 mM Tris-HCl pH 7.4, 150 mM NaCl, 0.1% Tween 20; protein preincubated 30 min with 50 mM phosphodonor and ….
The test system of series [2] is PsdR-P (phosphorylated with ammonium phosphoramidate) (Lacticaseibacillus paracasei BL23). Put plainly: BLI. As to conditions: BLI (BLITz, streptavidin sensors, DNA immobilized): 50 mM Tris-HCl pH 7.4, 150 mM NaCl, 0.1% Tween 20; protein preincubated 30 min with 50 mM phosphodonor and ….

Broadly, the Kd is the equilibrium constant for the complex coming apart. High values mean weaker binding, low ones tighter binding. On to “CAATCATCTCGCAAACTTACATCACCTTACAAAAAGGTCAGAAAGGGTGCGAGGGGCTTGTAGATTTCCTATAATGAATAGGAATATAGACACGGAGGAC (double strand) [PmprF]”, for which the results for the Kd in series [1] and in series [2] were 26600 nM and 94.8 nM, respectively.
As to “GGTAAAGAAAGACTAAAGCAGCTTACAAAGCCGTAAGTTACAAACAACCATCCGTTAGGCCATTATCAGGAAAAAGGCAGCCTAACCCGCTATCATAAAG (double strand) [PderA]”, the Kd was determined as 4740 nM in series [1] and 172 nM in series [2].
The corresponding values for “GTAAGCTACCTTACCAGCTTGTAAGCAACTACGAATCACTGTAAGTAGGCATGGGGCATCATCCCCGCTAAGCTAATAAATGAAAGGGGACGATCACATG (double strand) [PpsdA]” are 108000 nM and 116 nM.
In the case of “TCACGCTTCTCATATTACGAAACTGTTAGCTCATTGTTACGCAATTCGTTGGCGTCATTTTTTCTGAAAACCTATAATGAATGTGTAAATAAAAACGTGG (double strand) [Pdlt]”, the dissociation constant (Kd) in series [1] was 7470 nM; in series [2], 100 nM.
